From IntAct's records for PubMed 20700104

B1: Caspase Dronc (Drosophila melanogaster (Fruit fly)), Q9XYF4 (parent)
chain: MQPPELEIGMPKRHREHIRKNLNILVEWTNYERLAMECVQQGILTVQMLRNTQDLNGKPFNMDEKDVRVEQHRRLLLKITQRGPTAYNLLINALRNINCLDAAVLLESVDESDSRPPFISLNERRTSRKSADIVDTPSPEASEGPCVSKLRNEPLGALTPYVGVVDGPEVKKSKKIHGGDSAILGTYKMQSRFNRGVLLMVNIMDYPDQNRRRIGAEKDSKSLIHLFQELNFTIFPYGNVNQDQFFKLLTMVTSSSYVQNTECFVMVLMTHGNSVEGKEKVEFCDGSVVDMQKIKDHFQTAKCPYLVNKPKVLMFPFCRGDEYDLGHPKNQGNLMEPVYTAQEEKWPDTQTEGIPSPSTNVPSLADTLVCYANTPGYVTHRDLDTGSWYIQKFCQVMADHAHDTDLEDILKKTSEAVGNKRTKKGSMQTGAYDNLGFNKKLYFNPGFFNE
B2: Caspase Dronc (Drosophila melanogaster (Fruit fly)), Q9XYF4 (parent)
chain: B1 chain
partner: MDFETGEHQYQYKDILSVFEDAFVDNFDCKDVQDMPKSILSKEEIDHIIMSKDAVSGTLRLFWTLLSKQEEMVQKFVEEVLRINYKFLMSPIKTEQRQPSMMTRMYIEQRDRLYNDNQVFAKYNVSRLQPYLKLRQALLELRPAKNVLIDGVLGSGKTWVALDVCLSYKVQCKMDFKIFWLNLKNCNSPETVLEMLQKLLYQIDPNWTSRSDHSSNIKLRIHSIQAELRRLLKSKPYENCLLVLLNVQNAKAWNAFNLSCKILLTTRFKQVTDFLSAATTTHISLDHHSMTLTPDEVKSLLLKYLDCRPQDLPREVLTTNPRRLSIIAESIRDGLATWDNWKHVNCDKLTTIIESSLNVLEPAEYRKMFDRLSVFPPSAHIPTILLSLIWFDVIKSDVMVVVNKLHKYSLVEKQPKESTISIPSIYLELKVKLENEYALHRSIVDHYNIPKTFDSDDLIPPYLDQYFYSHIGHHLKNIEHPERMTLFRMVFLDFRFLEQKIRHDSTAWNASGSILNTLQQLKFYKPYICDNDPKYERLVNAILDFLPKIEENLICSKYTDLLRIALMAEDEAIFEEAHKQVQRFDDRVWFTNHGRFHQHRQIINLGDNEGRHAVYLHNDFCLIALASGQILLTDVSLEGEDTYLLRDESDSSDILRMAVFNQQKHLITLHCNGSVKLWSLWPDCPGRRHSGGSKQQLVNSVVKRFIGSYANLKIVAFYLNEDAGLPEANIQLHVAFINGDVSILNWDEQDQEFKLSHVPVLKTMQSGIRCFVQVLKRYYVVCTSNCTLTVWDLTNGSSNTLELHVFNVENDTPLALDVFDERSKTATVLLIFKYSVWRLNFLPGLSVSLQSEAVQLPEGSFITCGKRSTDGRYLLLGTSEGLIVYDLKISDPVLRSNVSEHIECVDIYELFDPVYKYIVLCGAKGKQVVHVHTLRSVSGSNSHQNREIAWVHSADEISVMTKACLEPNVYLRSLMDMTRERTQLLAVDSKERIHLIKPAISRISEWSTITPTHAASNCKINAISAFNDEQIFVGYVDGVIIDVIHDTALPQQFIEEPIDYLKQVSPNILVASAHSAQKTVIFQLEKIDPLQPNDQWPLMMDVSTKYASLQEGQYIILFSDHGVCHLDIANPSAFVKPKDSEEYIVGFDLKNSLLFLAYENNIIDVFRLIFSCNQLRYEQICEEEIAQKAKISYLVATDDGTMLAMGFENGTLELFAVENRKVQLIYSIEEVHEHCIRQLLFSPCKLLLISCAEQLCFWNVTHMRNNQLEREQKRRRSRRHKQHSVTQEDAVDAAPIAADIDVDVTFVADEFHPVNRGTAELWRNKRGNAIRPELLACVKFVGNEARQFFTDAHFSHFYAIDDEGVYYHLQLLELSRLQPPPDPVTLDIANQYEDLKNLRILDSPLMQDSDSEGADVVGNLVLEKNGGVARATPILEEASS

Variants of: B1
Details: with kcc2a_drome CaMKII

Row | Variant | effect of a mutation on the interaction
1 | MQPPELEIGMPKRHREHIRKNLNILVEWTNYERLAMECVQQGILTVQMLRNTQDLNGKPFNMDEKDVRVEQHRRLLLKITQRGPTAYNLLINALRNINCLDAAVLLESVDESDSRPPFISLNERRTSRKAADIVDTPSPEASEGPCVSKLRNEPLGALTPYVGVVDGPEVKKSKKIHGGDSAILGTYKMQSRFNRGVLLMVNIMDYPDQNRRRIGAEKDSKSLIHLFQELNFTIFPYGNVNQDQFFKLLTMVTSSSYVQNTECFVMVLMTHGNSVEGKEKVEFCDGSVVDMQKIKDHFQTAKCPYLVNKPKVLMFPFCRGDEYDLGHPKNQGNLMEPVYTAQEEKWPDTQTEGIPSPSTNVPSLADTLVCYANTPGYVTHRDLDTGSWYIQKFCQVMADHAHDTDLEDILKKTSEAVGNKRTKKGSMQTGAYDNLGFNKKLYFNPGFFNE [S130A] | disrupting interaction

Variants of: B2
Details: with apaf_drome Dark

Row | Variant | effect of a mutation on the interaction
2 | MQPPELEIGMPKRHREHIRKNLNILVEWTNYERLAMECVQQGILTVQMLRNTQDLNGKPFNMDEKDVRVEQHRRLLLKITQRGPTAYNLLINALRNINCLDAAVLLESVDESDSRPPFISLNERRTSRKSADIVDTPSPEASEGPCVSKLRNEPLGALTPYVGVVDGPEVKKSKKIHGGDSAILGTYKMQSRFNRGVLLMVNIMDYPDQNRRRIGAEKDSKSLIHLFQELNFTIFPYGNVNQDQFFKLLTMVTSSSYVQNTECFVMVLMTHGNSVEGKEKVEFCDGSVVDMQKIKDHFQTAKCPYLVNKPKVLMFPFARGDEYDLGHPKNQGNLMEPVYTAQEEKWPDTQTEGIPSPSTNVPSLADTLVCYANTPGYVTHRDLDTGSWYIQKFCQVMADHAHDTDLEDILKKTSEAVGNKRTKKGSMQTGAYDNLGFNKKLYFNPGFFNE [C318A] | increasing interaction
3 | MQPPELEIGMPKRHREHIRKNLNILVEWTNYERLAMECVQQGILTVQMLRNTQDLNGKPFNMDEKDVRVEQHRRLLLKITQRGPTAYNLLINALRNINCLDAAVLLESVDESDSRPPFISLNERRTSRKAADIVDTPSPEASEGPCVSKLRNEPLGALTPYVGVVDGPEVKKSKKIHGGDSAILGTYKMQSRFNRGVLLMVNIMDYPDQNRRRIGAEKDSKSLIHLFQELNFTIFPYGNVNQDQFFKLLTMVTSSSYVQNTECFVMVLMTHGNSVEGKEKVEFCDGSVVDMQKIKDHFQTAKCPYLVNKPKVLMFPFCRGDEYDLGHPKNQGNLMEPVYTAQEEKWPDTQTEGIPSPSTNVPSLADTLVCYANTPGYVTHRDLDTGSWYIQKFCQVMADHAHDTDLEDILKKTSEAVGNKRTKKGSMQTGAYDNLGFNKKLYFNPGFFNE [S130A] | increasing interaction
